Data on one substance can be found in publication PMC8872419.

This assay concerns the target mutated SMN1 protein with T274YfsX32, myc-tagged (exogenous) (human) (UniProt Q16637). The experiment in a line: co-IP; lysate (1 mg) of HeLa cells 24 h after transfection, RIPA buffer without SDS; anti-myc-tag antibody on Dynabeads Protein A; washed three times; blots with anti-myc-tag and anti-SMN antibodies; band ratio End-SMN/Exo-SMN, in triplicate.

Turning to “endogenous FL-SMN1 and/or FL-SMN2 protein (endogenous SMN protein) (from UniProt Q16637 1-294) (natural protein)”, the ratio of End-SMN to Exo-SMN is 0.02 and the ratio of End-SMN/Exo-SMN, percent of wild type turned out to be 4%.
